± gives the uncertainty stated by the source.
Experiment: protein stability index of a GFP-peptide fusion (yeast GPS) (PSI 1-4); higher = more stable; sorted into four equal gates, so the index is relative within each strain
Outline: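 Tiled yeast protein peptides of 17 residues were each joined downstream of GFP, on plasmids that also express Cherry. The pooled library was maintained in yeast, and mid-log cultures in leucine-free medium were sorted into four equal gates on the GFP/Cherry ratio. Plasmids from every gate were amplified by PCR and sequenced on Illumina, with barcodes linking reads to strains. The protein stability index of a peptide is its gate-number-weighted read frequency summed over the gates.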

| Sequence | protein stability index (doa10∆) | protein stability index (pdr5∆) | protein stability index (san1∆) | protein stability index (ubr1∆) |
| --- | --- | --- | --- | --- |
| FETFLVDVNNKFIALCE [SIN4] | 2.94 ± 0.062 | 3.05 ± 0.049 | 3.09 ± 0.045 | 3.1 ± 0.059 |
| FEYVLYPSKTLKTDGVR [FAS2] | 2.42 ± 0.08 | 2.96 ± 0.069 | 2.26 ± 0.099 | 2.75 ± 0.081 |
| FFLGYMINRLLLCALDR [RPB2] | 1.51 ± 0.17 |  |  | 1.68 ± 0.12 |
| FFLQRKLRSELGYKDTS [BRR2] | 2.11 ± 0.091 | 1.53 ± 0.071 | 1.71 ± 0.12 | 1.35 ± 0.18 |
| FFNGKALNNAIPGGPKF [PRP8] | 3.29 ± 0.13 | 3.02 ± 0.16 | 2.87 ± 0.17 | 2.94 ± 0.1 |
| FFRNKLKYHDFLRKATA [RPL16B] | 2.02 ± 0.085 | 2.48 ± 0.086 | 2.4 ± 0.079 | 2.23 ± 0.072 |
| FGHLMHYGNEHIRRMVP [RPN1] | 1.71 ± 0.042 | 1.82 ± 0.039 | 1.6 ± 0.063 | 1.96 ± 0.034 |
| FGNIMDNLLEMSDHSLD [RRP6] | 2.42 ± 0.074 | 2.58 ± 0.065 | 1.89 ± 0.1 | 3.27 ± 0.05 |
| FGPHVDVNDVLTKYIRS [GRR1] | 3.3 ± 0.056 | 3.2 ± 0.061 | 3.41 ± 0.046 | 3.29 ± 0.04 |
| FGQASGASTGNANTGFS [YGL172W/NUP49] | 3.18 ± 0.28 | 3.39 ± 0.17 |  |  |
| FGQDVSPMINSTSSGKV [SNM1] | 2.81 ± 0.1 | 3.32 ± 0.077 | 2.74 ± 0.067 | 3.02 ± 0.057 |
| FGSADDTYPYLTGEWST [FAS1] | 2.32 ± 0.067 | 1.32 ± 0.047 | 1.21 ± 0.086 | 1.28 ± 0.072 |
| FGSKPTGATSLFGSSNN [YGL172W/NUP49] | 3.39 ± 0.11 | 3.59 ± 0.11 | 3.54 ± 0.044 | 3.64 ± 0.1 |
| FGYPETIANSIILHFAN [YMR153W/NUP53] | 2.05 ± 0.062 | 2.23 ± 0.067 | 1.88 ± 0.09 | 2.15 ± 0.066 |
| FHGTSTKANDKNESATI [FAS2] | 3.06 ± 0.12 | 2.8 ± 0.094 | 2.95 ± 0.075 | 2.91 ± 0.1 |
| FHSEPDRDENWIHVSCL [LIN1] | 3.16 ± 0.075 | 3.27 ± 0.054 | 3.07 ± 0.045 | 3.13 ± 0.039 |
| FICSIIQTVVISLLALP [YML031W/NDC1] | 1.43 ± 0.11 | 1.36 ± 0.076 | 1.34 ± 0.11 | 2.12 ± 0.11 |
| FIDHHAAIRQPTRYVLI [POP1] | 1.72 ± 0.066 | 2.08 ± 0.073 | 1.77 ± 0.098 | 1.4 ± 0.047 |
| FIDSICKLFDKISFNLR [SRB8] | 2.23 ± 0.054 | 2.23 ± 0.046 | 1.96 ± 0.063 | 1.98 ± 0.053 |
| FIKVVNYNHLLPTRYTL [RPL27A] | 2.34 ± 0.06 | 2.25 ± 0.076 | 2.07 ± 0.098 | 2.18 ± 0.067 |
| FILLDRLRQFNLQPIST [SMC4] | 2.22 ± 0.04 | 1.56 ± 0.037 | 1.49 ± 0.061 | 1.32 ± 0.042 |
| FINNVLSNPSNQNICTS [GRR1] | 2.42 ± 0.074 | 2.31 ± 0.033 | 2.53 ± 0.054 | 2.47 ± 0.037 |
| FITAKDKYKLYPVRIPR [YJR042W/NUP85] | 2.87 ± 0.06 | 2.73 ± 0.087 | 3.06 ± 0.077 | 2.89 ± 0.069 |
| FIYGMSAKDHPKVKEIK [PRP8] | 2.53 ± 0.25 | 3.12 ± 0.19 | 2.72 ± 0.23 | 3.33 ± 0.16 |
| FKDRFKDEPVQNDILQE [FAS2] | 3.35 ± 0.13 | 3.03 ± 0.15 | 3.23 ± 0.072 | 3.46 ± 0.092 |

| Sequence | protein stability index (doa10∆) | protein stability index (pdr5∆) | protein stability index (san1∆) | protein stability index (ubr1∆) |
| --- | --- | --- | --- | --- |
| FKGHSHIVQDCTLTADG [ASC1] | 1.67 ± 0.066 | 2.04 ± 0.087 | 2.06 ± 0.16 | 1.55 ± 0.065 |
| FKHGPMSLINDAMVTRT [SMD2] | 2.9 ± 0.11 | 2.43 ± 0.09 | 2.76 ± 0.093 | 3.01 ± 0.085 |
| FKIHTAKVKKTGEFDFE [RPT4] | 2.3 ± 0.11 | 3.06 ± 0.12 | 2.29 ± 0.17 | 2.81 ± 0.12 |
| FKIWHGEINKICMESLF [PCI8] | 1.83 ± 0.1 | 1.46 ± 0.056 | 1.42 ± 0.1 | 1.87 ± 0.058 |
| FKKAAPSPISHVAEIRS [RPB2] | 1.92 ± 0.051 | 1.94 ± 0.046 | 1.77 ± 0.058 | 1.81 ± 0.036 |
| FKKDFEVNISSLDAREA [RPC40] | 2.07 ± 0.059 | 1.58 ± 0.067 | 1.98 ± 0.1 | 2.16 ± 0.092 |
| FKKDLVIVLSNISHLLE [SWI1] | 1.86 ± 0.048 | 1.63 ± 0.067 | 1.75 ± 0.078 | 1.93 ± 0.061 |
| FKKLTKDIFRYMQRTVE [RPB2] | 1.63 ± 0.045 | 1.4 ± 0.034 | 1.25 ± 0.087 | 1.36 ± 0.033 |
| FKLGKFNYVAVGDVSNL [QCR2] | 3.28 ± 0.1 | 2.01 ± 0.1 | 2.38 ± 0.14 | 2.83 ± 0.068 |
| FKNDFNSFYYTSLLYLS [RPN9] | 1.33 ± 0.049 | 1.81 ± 0.073 | 2.19 ± 0.11 | 1.25 ± 0.099 |
| FKQAKERVMKNKVEENL [RPT2] | 3.11 ± 0.11 | 3.27 ± 0.061 | 3 ± 0.14 | 3.29 ± 0.11 |
| FKVRTNLNDKFGIYILT [MED1] | 1.76 ± 0.05 | 1.87 ± 0.046 | 1.98 ± 0.098 | 1.92 ± 0.042 |
| FKYVSVRYEEKRELKQL [BRR2] | 2.63 ± 0.068 | 2.93 ± 0.056 | 2.93 ± 0.067 | 3.13 ± 0.05 |
| FLFHAISGREGLVDTAV [RPO31] |  | 2.89 ± 0.28 |  | 2.55 ± 0.13 |
| FLGEQVNEPTKNEEAEI [RPN1] |  |  |  | 3.56 ± 0.26 |
| FLIDVLKIYAQIEKKEI [YCG1] | 1.26 ± 0.07 | 1.93 ± 0.063 | 1.21 ± 0.11 | 1.4 ± 0.054 |
| FLLEKAGERKIPHDLNF [TAF14] | 2.43 ± 0.067 | 2.71 ± 0.062 | 2.61 ± 0.051 | 2.47 ± 0.046 |
| FLNSNAVVVGTGNIKHE [COR1] | 1.18 ± 0.085 | 1.36 ± 0.15 | 1.06 ± 0.22 | 1.24 ± 0.12 |
| FLQSQRQQQQRSILQSL [SWI1] | 1.8 ± 0.062 | 1.92 ± 0.073 | 1.41 ± 0.087 | 1.55 ± 0.054 |
| FLTNELIRLQMEKLDAK [SWI3] | 2.97 ± 0.11 | 2.98 ± 0.085 | 3.14 ± 0.051 | 2.96 ± 0.078 |
| FMEAQGAGIQIIMQADL [FAS2] | 2.36 ± 0.094 | 2.33 ± 0.12 | 2.08 ± 0.24 | 2.11 ± 0.083 |
| FMKKLRAAKLAAPENEK [RPS15] | 2.85 ± 0.14 | 3.25 ± 0.17 | 2.48 ± 0.11 | 3.48 ± 0.22 |
| FMTKLLEVANDLQLLYV [IRR1] | 1.72 ± 0.11 | 1.98 ± 0.075 | 2.23 ± 0.12 | 1.24 ± 0.045 |
| FNAGSNPPSYQSSEDVI [RPB7] | 2.83 ± 0.24 | 2.67 ± 0.21 | 2.72 ± 0.27 | 2.65 ± 0.14 |
